One block for each substance: values may come before it.
Columns and labels:
[1] = target: recombinant soluble KIR2DL3 (entire extracellular domain, produced in E. coli) (human) (UniProt P43628); assay: Biacore competition, KIR2DL3 chip; competitor (second Ab) 1-7F9
[2] = target: recombinant soluble KIR2DL3 (entire extracellular domain, produced in E. coli) (human) (UniProt P43628); assay: Biacore competition, KIR2DL3 chip; competitor (second Ab) Pan2D
[3] = target: recombinant soluble KIR2DL3 (entire extracellular domain, produced in E. coli) (human) (UniProt P43628); assay: Biacore competition, KIR2DL3 chip; competitor (second Ab) 1-4F1
[4] = target: recombinant soluble KIR2DL3 (entire extracellular domain, produced in E. coli) (human) (UniProt P43628); assay: Biacore, KIR2DL3 chip; first Ab 1-6F1 bound
[5] = target: recombinant soluble KIR2DL3 (entire extracellular domain, produced in E. coli) (human) (UniProt P43628); assay: Biacore competition, KIR2DL3 chip; competitor (second Ab) DF200
[6] = target: recombinant soluble KIR2DL3 (entire extracellular domain, produced in E. coli) (human) (UniProt P43628); assay: Biacore, KIR2DL3 chip; direct binding (field of first Ab 1-6F1)
[7] = target: recombinant soluble KIR2DL3 (entire extracellular domain, produced in E. coli) (human) (UniProt P43628); assay: Biacore, KIR2DL3 chip; direct binding (field of first Ab 1-7F9)
[8] = target: recombinant soluble KIR2DL3 (entire extracellular domain, produced in E. coli) (human) (UniProt P43628); assay: Biacore competition, KIR2DL3 chip; competitor (second Ab) 1-6F1
[9] = target: recombinant soluble KIR2DL3 (entire extracellular domain, produced in E. coli) (human) (UniProt P43628); assay: Biacore, KIR2DL3 chip; first Ab 1-7F9 bound
[10] = target: recombinant soluble KIR2DL3 (entire extracellular domain, produced in E. coli) (human) (UniProt P43628); assay: Biacore, KIR2DL3 chip; first Ab 1-4F1 bound
[11] = target: recombinant soluble KIR2DL3 (entire extracellular domain, produced in E. coli) (human) (UniProt P43628); assay: Biacore, KIR2DL3 chip; direct binding (field of first Ab 1-4F1)
[12] = target: recombinant soluble KIR2DL1 (entire extracellular domain, produced in E. coli) (human) (UniProt P43626); assay: Biacore competition, KIR2DL1 chip; competitor (second Ab) 1-7F9
[13] = target: recombinant soluble KIR2DL1 (entire extracellular domain, produced in E. coli) (human) (UniProt P43626); assay: Biacore competition, KIR2DL1 chip; competitor (second Ab) Pan2D
[14] = target: recombinant soluble KIR2DL1 (entire extracellular domain, produced in E. coli) (human) (UniProt P43626); assay: Biacore competition, KIR2DL1 chip; competitor (second Ab) 1-4F1
[15] = target: recombinant soluble KIR2DL1 (entire extracellular domain, produced in E. coli) (human) (UniProt P43626); assay: Biacore, KIR2DL1 chip; first Ab EB6 bound
[16] = target: recombinant soluble KIR2DL1 (entire extracellular domain, produced in E. coli) (human) (UniProt P43626); assay: Biacore, KIR2DL1 chip; direct binding (field of first Ab 1-6F1)
[17] = target: recombinant soluble KIR2DL1 (entire extracellular domain, produced in E. coli) (human) (UniProt P43626); assay: Biacore competition, KIR2DL1 chip; competitor (second Ab) EB6 (self)
[18] = target: recombinant soluble KIR2DL1 (entire extracellular domain, produced in E. coli) (human) (UniProt P43626); assay: Biacore, KIR2DL1 chip; first Ab 1-6F1 bound
[19] = target: recombinant soluble KIR2DL1 (entire extracellular domain, produced in E. coli) (human) (UniProt P43626); assay: Biacore competition, KIR2DL1 chip; competitor (second Ab) DF200
[20] = target: recombinant soluble KIR2DL1 (entire extracellular domain, produced in E. coli) (human) (UniProt P43626); assay: Biacore, KIR2DL1 chip; first Ab 1-7F9 bound
[21] = target: recombinant soluble KIR2DL1 (entire extracellular domain, produced in E. coli) (human) (UniProt P43626); assay: Biacore, KIR2DL1 chip; direct binding (field of first Ab EB6)
[22] = target: recombinant soluble KIR2DL1 (entire extracellular domain, produced in E. coli) (human) (UniProt P43626); assay: Biacore, KIR2DL1 chip; direct binding (field of first Ab 1-7F9)
[23] = target: recombinant soluble KIR2DL1 (entire extracellular domain, produced in E. coli) (human) (UniProt P43626); assay: Biacore competition, KIR2DL1 chip; competitor (second Ab) 1-6F1

- % inhibition of second antibody binding [1]: 76%
- % inhibition of second antibody binding [2]: 40%
- % inhibition of second antibody binding [3]: 75%
- RU, second antibody after first antibody [4]: 570 RU
- % inhibition of second antibody binding [5]: 8%
- RU, second antibody alone [6]: 620 RU
- RU, second antibody alone [7]: 800 RU
- % inhibition of second antibody binding [8]: 18%
- RU, second antibody after first antibody [9]: 200 RU
- RU, second antibody after first antibody [10]: 330 RU
- RU, second antibody alone [11]: 1240 RU
Substance: murine monoclonal antibody GL183

- % inhibition of second antibody binding [12]: 65%
- % inhibition of second antibody binding [13]: 40%
- % inhibition of second antibody binding [14]: 48%
- RU, second antibody after first antibody [15]: 200 RU
- RU, second antibody alone [16]: 260 RU
- % inhibition of second antibody binding [17]: 57%
- RU, second antibody after first antibody [18]: 320 RU
- % inhibition of second antibody binding [19]: 60%
- RU, second antibody after first antibody [20]: 180 RU
- RU, second antibody alone [21]: 460 RU
- RU, second antibody alone [22]: 460 RU
- % inhibition of second antibody binding [23]: 23%
Substance: murine monoclonal antibody EB6
